The target in test [1] is FPR-GFP fusion protein (human; Aequorea victoria), P21462. The experiment in a line: flow cytometry, LRG assembly of 30 nM FPR-GFP on αβγ DCNi beads, ligand varied (FIG. 13B). Background: In flow cytometry, cells or beads pass a laser one at a time.
The target of test [2] is T1, formyl peptide receptor (FPR), wild type, detergent-solubilized (human), P21462.
T1 chain: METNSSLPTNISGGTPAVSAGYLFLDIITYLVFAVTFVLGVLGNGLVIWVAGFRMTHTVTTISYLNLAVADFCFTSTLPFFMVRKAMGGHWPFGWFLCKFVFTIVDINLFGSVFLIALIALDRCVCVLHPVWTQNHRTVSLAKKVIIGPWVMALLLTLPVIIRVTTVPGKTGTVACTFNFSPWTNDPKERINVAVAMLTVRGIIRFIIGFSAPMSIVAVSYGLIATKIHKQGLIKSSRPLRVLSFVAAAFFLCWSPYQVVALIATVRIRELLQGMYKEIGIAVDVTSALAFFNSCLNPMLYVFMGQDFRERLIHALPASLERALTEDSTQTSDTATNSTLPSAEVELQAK
The experiment in a line: spectrofluorimetric competition with L^F for solubilized FPR, IC50 converted to Kd.

Test [3] addresses FPR-GFP fusion protein (human; Aequorea victoria), P21462. Briefly: Kd from competition on wild type FPR divided by EC50 of LRG assembly with FPR-GFP.

Experimental findings from US7232659 are described below.

Broadly, the EC50 is the concentration at which the effect is half-maximal. Read a high EC50 as lower potency in that assay. By Kd is commonly meant a measure of binding affinity in units of concentration. With MLFF (modifications not checked) [fMLFF], the EC50 in test [1] was 27 nM. Further, in test [2], the Kd stood at 75 nM. For the same molecule, the ratio of Kd (for LR) to EC50 (for LRG formation) in test [3] came out at 2.8.
